FireProtDB (doi:10.1093/oxfordjournals.jbchem.a021544)

Conditions: Homo sapiens; pH 2.7; Thermal; DSC; glycine 0.05 M; reversible: yes; whole UniProt chain shown

B1: Lysozyme C wild type, P61626 (protein)
chain: MKALIVLGLVLLSVTVQGKVFERCELARTLKRLGMDGYRGISLANWMCLAKWESGYNTRATNYNAGDRSTDYGIFQINSRYWCNDGKTPGAVNACHLSCSALLQDNIADAVACAKRVVRDPQGIRAWVAWRNRCQNRDVRQYVQGCGV
Tm: 64.9 °C | heat capacity change of unfolding: 1.58 kcal/mol/K | unfolding enthalpy (calorimetric): 477 kJ/mol | unfolding enthalpy (van 't Hoff): 502 kJ/mol
